Results as given in US20030171278A1 (Genentech, published 2003).
Bridges are numbered along the chain shown (N, C = ends). Where no end group is shown, it is not given here.

T1: HER4 (UniProt Q15303 26-651, limits assumed)
T1 construct: Called 'closely related; HER4'
T1 sequence (looked up): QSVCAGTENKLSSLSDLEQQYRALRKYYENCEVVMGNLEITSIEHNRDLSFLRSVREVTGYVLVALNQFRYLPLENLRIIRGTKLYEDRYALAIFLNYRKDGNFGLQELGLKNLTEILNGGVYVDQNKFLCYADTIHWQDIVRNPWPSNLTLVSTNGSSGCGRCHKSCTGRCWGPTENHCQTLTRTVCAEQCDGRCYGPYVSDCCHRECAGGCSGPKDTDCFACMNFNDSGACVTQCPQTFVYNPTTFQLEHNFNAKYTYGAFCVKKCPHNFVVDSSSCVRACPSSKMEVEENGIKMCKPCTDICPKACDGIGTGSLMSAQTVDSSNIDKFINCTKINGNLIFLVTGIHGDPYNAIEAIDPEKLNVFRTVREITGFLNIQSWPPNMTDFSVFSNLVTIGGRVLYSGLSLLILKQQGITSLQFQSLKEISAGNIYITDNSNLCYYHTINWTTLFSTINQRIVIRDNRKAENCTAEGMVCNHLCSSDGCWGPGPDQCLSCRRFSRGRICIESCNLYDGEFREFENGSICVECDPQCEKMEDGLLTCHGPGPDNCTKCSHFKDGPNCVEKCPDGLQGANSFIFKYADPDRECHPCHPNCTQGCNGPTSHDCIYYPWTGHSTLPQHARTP


Experiments:
[1] = target: T2, HER2 extracellular domain (HER2-ECD) (human, UniProt P04626 23-652); test: competition ELISA, block of 1.1.FI-Zb binding to immobilized HER2-ECD
T2 construct: extracellular domain; also called immobilized HER2; extracellular domain of Erb2
Experimental: Following a 1 h incubation the plate was washed with PBS-Tween and Strepavidin/HRP conjugate (Streptavidin-POD, Roche Molecular Biochemicals) was added for 30 min.

[2] = target: T2, HER2 extracellular domain (HER2-ECD); test: direct binding ELISA, immobilized HER2-ECD, streptavidin-HRP detection
[3] = target: T2, HER2 extracellular domain (HER2-ECD); test: phage binding assay, immobilized HER2-ECD
HER3 = target: T3, HER3 (UniProt P21860 20-643, limits assumed); test: phage binding assay on immobilized protein
T3 construct: Called 'closely related HER3'

HER4 = target: T1, HER4; test: phage binding assay on immobilized protein
BSA = target: T4, BSA (UniProt P02769 25-607); test: phage binding assay on immobilized protein
T4 construct: Control coating protein; also called immobilized BSA

[4] = target: T2, HER2 extracellular domain (HER2-ECD); test: phage ELISA, block of 1.1FI phage binding to immobilized HER2-ECD
Experimental: HER2-ECD was immobilized directly to Maxisorp plates (Nunc) in 50 mM ammonium bicarbonate, pH 9.3, using 5 μg/ml, overnight at 4° C. Wells were blocked using PBS containing 1% BSA (PBS-BSA) for 1 h at 25° C. […] The microtiter plate was washed with PBS containing 0.05% Tween20 (PBS-Tween) and the phage bound to HER2-ECD were detected with an anti-gVIII/HRP monoclonal antibody conjugate (Amersham Pharmacia Biotech).

T4 sequence (P02769 25-607 limits assumed): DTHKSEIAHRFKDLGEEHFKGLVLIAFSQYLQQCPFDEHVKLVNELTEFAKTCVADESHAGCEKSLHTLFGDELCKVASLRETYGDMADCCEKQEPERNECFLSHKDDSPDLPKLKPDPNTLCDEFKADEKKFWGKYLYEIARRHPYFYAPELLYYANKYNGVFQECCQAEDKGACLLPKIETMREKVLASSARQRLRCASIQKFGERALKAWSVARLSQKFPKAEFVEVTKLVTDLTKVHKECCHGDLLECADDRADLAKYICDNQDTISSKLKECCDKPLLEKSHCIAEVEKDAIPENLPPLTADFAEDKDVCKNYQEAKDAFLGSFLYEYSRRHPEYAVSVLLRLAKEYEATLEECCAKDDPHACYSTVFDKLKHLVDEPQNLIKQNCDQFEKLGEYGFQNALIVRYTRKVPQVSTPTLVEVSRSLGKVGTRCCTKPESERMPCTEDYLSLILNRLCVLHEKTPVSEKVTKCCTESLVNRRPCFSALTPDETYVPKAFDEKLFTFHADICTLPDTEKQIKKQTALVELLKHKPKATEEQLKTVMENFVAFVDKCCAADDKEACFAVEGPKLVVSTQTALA
T3 sequence (P21860 20-643 limits assumed): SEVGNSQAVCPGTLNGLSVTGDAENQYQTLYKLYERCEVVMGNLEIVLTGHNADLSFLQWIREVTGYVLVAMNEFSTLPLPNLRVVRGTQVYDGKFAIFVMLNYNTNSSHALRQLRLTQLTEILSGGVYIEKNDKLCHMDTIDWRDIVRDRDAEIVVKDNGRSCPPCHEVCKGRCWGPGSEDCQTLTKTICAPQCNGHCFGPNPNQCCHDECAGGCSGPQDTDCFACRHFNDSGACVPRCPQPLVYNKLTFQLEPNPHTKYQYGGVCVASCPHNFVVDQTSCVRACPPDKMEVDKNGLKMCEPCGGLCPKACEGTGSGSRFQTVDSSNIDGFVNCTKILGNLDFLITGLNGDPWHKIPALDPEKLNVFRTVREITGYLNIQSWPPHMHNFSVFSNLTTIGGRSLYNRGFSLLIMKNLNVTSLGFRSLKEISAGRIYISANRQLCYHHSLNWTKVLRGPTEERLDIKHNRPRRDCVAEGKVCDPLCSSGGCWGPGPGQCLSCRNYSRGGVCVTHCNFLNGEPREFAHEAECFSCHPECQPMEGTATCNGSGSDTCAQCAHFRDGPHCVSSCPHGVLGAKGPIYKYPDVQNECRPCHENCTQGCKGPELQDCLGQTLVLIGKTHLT

| Binder | IC50 [1] [nM] | binding result [3] | binding result (HER3) | binding result (HER4) | binding result (BSA) | further results |
| --- | --- | --- | --- | --- | --- | --- |
| QVYESWGCIGPGCACLQACL (disulfide 8-13, 15-19, Present only as monomer by mass spectrometry; also called synthetic peptide of clone 1.1.FI) [Peptide HER212] | 9000 |  |  |  |  |  |
| QVYESWGCIGPGCACLQACL (other, not fully specified (C-terminus); cysteine pairing not given here; also: biotinylated with NHS-LC-biotin, sites not given here, fused to Z domain of protein A (not in chain)) [1.1.FI-Zb (biotinylated 1.1.FI-Z)] |  |  |  |  |  | EC50 [2]: 2 nM |
| CSWVLVQCGGEWWHCCGLGCGLVVNAC (not fully specified (C-terminus); printed as Cys-Ser-Trp-Val-Leu-Val-Gln-Cys-Gly-Gly-Glu-Trp-Trp-His-Cys-Cys-Gly-Leu-Gly-Cys-Gly-Leu-Val-Val-Asn-Ala-Cys; cysteine pairing not given here; also: displayed on phage as pVIII fusion, also called Pool 7 clone; not shown: linker and phage coat protein pVIII (polyvalent display)) [phage clone 7.1] |  | binds | no binding | no binding | no binding |  |
| YSFEGWGCIGPGCAYLFEGH (disulfide 8-13 (inferred), also called synthetic peptide of phage-clone 1.1.2) [Peptide HER201] | 300 |  |  |  |  |  |
| QVYESWGCIGPGCACLQACLGGGSSG (Fc fusion, not fully specified (C-terminus); cysteine pairing not given here; also: fused through linker to Fc of human IgG1 (not in chain), also called peptide 1.1.FI fused through a linker to Fc of human IgG1; Her2-Fc expression vector product; not shown: Fc portion of the human IgG1 (700 base pair fragment)) [1.1FI-Fc] |  |  |  |  |  | IC50 [4]: 3 nM |
| QVYESWGCIGPGCACLQACLGGGSGGQVYESWGCIGPGCACLQACL-{Z domain of protein A} (other, not fully specified; cysteine pairing not given here; also: fused to Z domain of protein A (not in chain), also called single chain dimer; 1.1FI repeated twice and fused to the Z domain of protein A) [(1.1FI)2-Z] | 20 |  |  |  |  |  |
| RSCADVASRCWEHCIT (not fully specified (C-terminus); cysteine pairing not given here; also: displayed on phage as pVIII fusion, also called Pool 5 clone; not shown: linker and phage coat protein pVIII (polyvalent display)) [phage clone 5.1] |  | binds | no binding | no binding | no binding |  |
| YEVEAWDCMGPGCANLFEAH (not fully specified (C-terminus); cysteine pairing not given here; also: displayed on phage as pVIII fusion, also called Pool 1 clone; not shown: linker and phage coat protein pVIII (polyvalent display)) [phage clone 1.1] |  | binds | no binding | no binding | no binding |  |
